According to patent US20040072179:
Like-named read-outs stand apart in the source and are kept apart here.

B1: TPWT (wild type 27 kDa NIa proteinase of tobacco etch virus, C-terminal His6 tag) (protein)
chain: MAESGESLFKGPRDYNPISSTICHLTNESDGHTTSLYGIGFGPFIITNKHLFRRNNGTLLVQSLHGVFKVKNTTTLQQHLIDGRDMIIIRMPKDFPPFPQKLKFREPQREERICLVTTNFQTKSMSSMVSDTSCTFPSSDGIFWKHWIQTKDGQCGSPLVSTRDGFIVGIHSASNFTNTNNYFTSVPKNFMELLTNQEAQQWVSGWRLNADSVLWGGHKVFMSKPEEPFQPVKEATQLMNELVYSQLHHHHHH
B2: commercially available 27 kDa NIa proteinase (GibcoBRL) (protein)
chain: GESLFKGPRDYNPISSTICHLTNESDGHTTSLYGIGFGPFIITNKHLFRRNNGTLLVQSLHGVFKVKNTTTLQQHLIDGRDMIIIRMPKDFPPFPQKLKFREPQREERICLVTTNFQTKSMSSMVSDTSCTFPSSDGIFWKHWIQTKDGQCGSPLVSTRDGFIVGIHSASNFTNTNNYFTSVPKNFMELLTNQEAQQWVSGWRLNADSVLWGGHKVFMSKPEEPFQPVKEATQLMNELVYSQ

Legend:
[1] = tested on: 17 kDa substrate containing the target cleavage site Glu-Asn-Leu-Tyr-Phe-Gln-Gly (SEQ ID NO: 5)
[2] = molecular target: 17 kDa substrate containing the target cleavage site Glu-Asn-Leu-Tyr-Phe-Gln-Gly (SEQ ID NO: 5); remark: listed apart in the source

Molecule | specific activity for substrate cleavage [1] | specific activity for substrate cleavage [2] | substrate cleavage (SDS-PAGE) [2]
TPSN (mutant 27 kDa NIa proteinase with Ser219 to Asn mutation, C-terminal His6 tag) | TPWT and TPSN have similar activity to each other and to the commercially available proteinase at all substrate concentrations tested |  | 
B1 |  | TPWT and TPSN have similar activity to each other and to the commercially available proteinase at all substrate concentrations tested | 
B2 |  | TPWT and TPSN have similar activity to each other and to the commercially available proteinase at all substrate concentrations tested | produces a ˜15 kDa peptide when cleaved with commercially available 27 kDa NIa proteinase (GibcoBRL)
